# From article PMC7948595, “1,6-Hexanediol, commonly used to dissolve liquid–liquid phase separated condensates, directly impairs kinase and phosphatase activities” (The Journal of Biological Chemistry, 2021)
# Biological target: T1, GST-Cdk7 (2–346) (human, UniProt P50613 2-346)
# T1 construct: Cdk7, human, residues 2-346
# Test: pull-down; 10 µg of purified CDK–cyclin complex immobilised by its GST-tagged subunit on GSH 4B sepharose beads in 100 µl PBS; incubated 1 h in PBS or PBS with 5% 1,6-hexanediol; washed three times; eluted in SDS-sample buffer; Coomassie-stained SDS-PAGE
# Settings: both partners purified
# T1 sequence (P50613 2-346): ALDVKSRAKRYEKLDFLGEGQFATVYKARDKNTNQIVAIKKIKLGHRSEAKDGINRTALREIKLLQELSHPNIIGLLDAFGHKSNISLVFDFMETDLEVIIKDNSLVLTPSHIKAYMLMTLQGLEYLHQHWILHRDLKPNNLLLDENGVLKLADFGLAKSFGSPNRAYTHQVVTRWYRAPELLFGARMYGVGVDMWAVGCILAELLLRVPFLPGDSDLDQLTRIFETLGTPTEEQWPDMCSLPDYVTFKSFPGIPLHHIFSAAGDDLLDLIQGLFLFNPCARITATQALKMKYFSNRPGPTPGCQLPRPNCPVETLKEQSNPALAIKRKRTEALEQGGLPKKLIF
binder,measurement,value
"Cyclin H (1–323) (natural protein, human, UniProt P51946 1-323, looked up, Cyclin H, human, residues 1-323; also called CycH) MYHNSSQKRHWTFSSEEQLARLRADANRKFRCKAVANGKVLPNDPVFLEPHEEMTLCKYYEKRLLEFCSVFKPAMPRSVVGTACMYFKRFYLNNSVMEYHPRIIMLTCAFLACKVDEFNVSSPQFVGNLRESPLGQEKALEQILEYELLLIQQLNFHLIVHNPYRPFEGFLIDLKTRYPILENPEILRKTADDFLNRIALTDAYLLYTPSQIALTAILSSASRAGITMESYLSESLMLKENRTCLSQLLDIMKSMRNLVKKYEPPRSEEVAVLKQKLERCHSAELALNVITKKRKGYEDDDYVSKKSKHEEEEWTDDDLVESL",binding result,binds
